Source: US20160185832A1 (University of Pennsylvania, published 2016)

Assays:
[1] = target: T1, pure, pre-polymerized, taxol-stabilized microtubules of bovine tubulin (Cytoskeleton) (bovine, UniProt P81947 1-451; Q6B856 1-445, limits assumed); assay: microtubule co-sedimentation, 1 nM purified 6×His truncation M with increasing microtubules, Coomassie gel, non-linear regression
T1 construct: Polymer of alpha/beta tubulin dimers, polymerized with GTP and stabilized with 10 µM taxol; also called MT; MTs
T1 sequence (P81947 whole entry, chain 1 of 2, the tested form may be a part): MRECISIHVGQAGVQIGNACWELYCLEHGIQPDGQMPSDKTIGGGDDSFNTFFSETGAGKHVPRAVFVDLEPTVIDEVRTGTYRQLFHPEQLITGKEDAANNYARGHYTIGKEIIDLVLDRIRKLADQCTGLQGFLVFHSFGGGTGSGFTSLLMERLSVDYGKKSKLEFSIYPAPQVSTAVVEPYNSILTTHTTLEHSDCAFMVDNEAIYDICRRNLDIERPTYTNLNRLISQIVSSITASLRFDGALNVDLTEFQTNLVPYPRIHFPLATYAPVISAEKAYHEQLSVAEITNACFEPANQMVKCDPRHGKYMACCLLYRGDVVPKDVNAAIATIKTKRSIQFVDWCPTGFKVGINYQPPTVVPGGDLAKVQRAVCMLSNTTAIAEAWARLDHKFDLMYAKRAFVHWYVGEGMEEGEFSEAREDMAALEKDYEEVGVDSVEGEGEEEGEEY
T1 sequence (Q6B856 whole entry, chain 2 of 2, the tested form may be a part): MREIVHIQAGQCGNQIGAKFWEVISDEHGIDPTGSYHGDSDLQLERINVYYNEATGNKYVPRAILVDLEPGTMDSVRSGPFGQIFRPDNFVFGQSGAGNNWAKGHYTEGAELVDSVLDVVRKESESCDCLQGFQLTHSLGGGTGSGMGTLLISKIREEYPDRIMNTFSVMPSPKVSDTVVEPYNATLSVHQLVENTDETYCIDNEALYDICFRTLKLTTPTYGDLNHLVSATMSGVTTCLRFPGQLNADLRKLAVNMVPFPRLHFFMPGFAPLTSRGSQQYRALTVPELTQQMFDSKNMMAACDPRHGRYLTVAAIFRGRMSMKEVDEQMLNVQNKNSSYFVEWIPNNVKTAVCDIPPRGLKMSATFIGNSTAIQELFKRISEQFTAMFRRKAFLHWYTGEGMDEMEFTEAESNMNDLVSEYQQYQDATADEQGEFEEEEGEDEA
Procedure: For the direct microtubule binding assay, 1 nM of recombinantly expressed and purified 6×His tagged CEP290 truncation M was incubated at 30° C. for 30 minutes with increasing amounts of pure, prepolymerized microtubules. Reactions were centrifuged and subjected to SDS-PAGE as above, and tubulin and CEP290 truncation M were detected by Coomassie blue staining.

[2] = target: microtubule network of cultured human cells (hTERT-RPE1, 293T) (human, UniProt P68363 1-451; P07437 1-444); assay: cell-based or functional assay
microtubule network of cultured human cells (hTERT-RPE1, 293T), sequence (P68363 whole entry, chain 1 of 2): as the sequence (P81947 whole entry, chain 1 of 2, the tested form may be a part) above
microtubule network of cultured human cells (hTERT-RPE1, 293T), sequence (P07437 whole entry, chain 2 of 2): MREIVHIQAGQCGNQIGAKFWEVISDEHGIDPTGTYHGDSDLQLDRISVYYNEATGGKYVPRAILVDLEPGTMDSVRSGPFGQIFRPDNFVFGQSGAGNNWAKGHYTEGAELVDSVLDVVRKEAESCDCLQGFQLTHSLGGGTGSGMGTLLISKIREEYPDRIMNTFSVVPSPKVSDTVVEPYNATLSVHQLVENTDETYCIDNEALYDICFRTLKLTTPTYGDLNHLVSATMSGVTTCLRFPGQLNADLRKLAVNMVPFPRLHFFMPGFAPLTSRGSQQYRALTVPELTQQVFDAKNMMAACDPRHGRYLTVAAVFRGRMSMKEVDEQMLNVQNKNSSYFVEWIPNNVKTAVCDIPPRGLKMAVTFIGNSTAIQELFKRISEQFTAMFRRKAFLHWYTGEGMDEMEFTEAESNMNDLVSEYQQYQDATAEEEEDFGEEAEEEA

[3] = target: T1, pure, pre-polymerized, taxol-stabilized …; assay: in vitro microtubule co-sedimentation, percent of construct in the microtubule pellet (FIG. 4D)
Procedure: (§1) Crude TNT T7 reaction products were diluted 1:1 in BRB80 supplemented with 1 mM GTP and 10 μM taxol. The diluted products were then incubated at 30° C. for 30 minutes in either the presence or absence of pure, pre-polymerized microtubules. Reactions were then centrifuged through a 40% sucrose cushion at 48,000×g for 30 minutes, the supernatant was collected, and the pellet washed once with warm BRB80 and resuspended in 1×SDS PAGE sample buffer. Both fractions were subjected to SDS-PAGE and transferred to nitrocellulose. The presence of tubulin in the pellets was confirmed by Ponceau staining, and GFP-tagged CEP290 constructs were detected by immunoblotting.

[4] = target: T1, pure, pre-polymerized, taxol-stabilized …; assay: in vitro microtubule co-sedimentation of in vitro translated GFP fusions, western blot
Procedure: as §1

B1: 6×His tagged CEP290 truncation M (aa 1695-1966), recombinantly expressed and purified (other)
chain: DQSQKESQCLKSELQAQKEANSRAPTTTMRNLVERLKSQLALKEKQQKALSRALLELRAEMTAAAEERIISATSQKEAHLNVQQIVDRHTRELKTQVEDLNENLLKLKEALKTSKNRENSLTDNLNDLNNELQKKQKAYNKILREKEEIDQENDELKRQIKRLTSGLQGKPLTDNKQSLIEELQRKVKKLENQLEGKVEEVDLKPMKEKNAKEELIRWEEGKKWQAKIEGIRNKLKEKEGEVFTLTKQLNTLKDLFAKADKEKLTLQRKLKT
notes: Expressed in E. coli BL21(DE3)pLysS, purified on Ni-NTA; also called region M; CEP290 region M; not shown: N-terminal 6×His tag from pDest-527
[1]
  Kd: ~100 nM

B2: GFP fusion of CEP290 aa 1-1966 (other)
chain: MPPNINWKEIMKVDPDDLPRQEELADNLLISLSKVEVNELKSEKQENVIHLFRITQSLMKMKAQEVELALEEVEKAGEEQAKFENQLKTKVMKLENELEMAQQSAGGRDTRFLRNEICQLEKQLEQKDRELEDMEKELEKEKKVNEQLALRNEEAENENSKLRRENKRLKKKNEQLCQDIIDYQKQIDSQKETLLSRRGEDSDYRSQLSKKNYELIQYLDEIQTLTEANEKIEVQNQEMRKNLEESVQEMEKMTDEYNRMKAIVHQTDNVIDQLKKENDHYQLQVQELTDLLKSKNEEDDPIMVAVNAKVEEWKLILSSKDDEIIEYQQMLHNLREKLKNAQLDADKSNVMALQQGIQERDSQIKMLTEQVEQYTKEMEKNTCIIEDLKNELQRNKGASTLSQQTHMKIQSTLDILKEKTKEAERTAELAEADAREKDKELVEALKRLKDYESGVYGLEDAVVEIKNCKNQIKIRDREIEILTKEINKLELKISDFLDENEALRERVGLEPKTMIDLTEFRNSKHLKQQQYRAENQILLKEIESLEEERLDLKKKIRQMAQERGKRSATSGLTTEDLNLTENISQGDRISERKLDLLSLKNMSEAQSKNEFLSRELIEKERDLERSRTVIAKFQNKLKELVEENKQLEEGMKEILQAIKEMQKDPDVKGGETSLIIPSLERLVNAIESKNAEGIFDASLHLKAQVDQLTGRNEELRQELRESRKEAINYSQQLAKANLKIDHLEKETSLLRQSEGSNVVFKGIDLPDGIAPSSASIINSQNEYLIHLLQELENKEKKLKNLEDSLEDYNRKFAVIRHQQSLLYKEYLSEKETWKTESKTIKEEKRKLEDQVQQDAIKVKEYNNLLNALQMDSDEMKKILAENSRKITVLQVNEKSLIRQYTTLVELERQLRKENEKQKNELLSMEAEVCEKIGCLQRFKEMAIFKIAALQKVVDNSVSLSELELANKQYNELTAKYRDILQKDNMLVQRTSNLEHLECENISLKEQVESINKELEITKEKLHTIEQAWEQETKLGNESSMDKAKKSITNSDIVSISKKITMLEMKELNERQRAEHCQKMYEHLRTSLKQMEERNFELETKFAELTKINLDAQKVEQMLRDELADSVSKAVSDADRQRILELEKNEMELKVEVSKLREISDIARRQVEILNAQQQSRDKEVESLRMQLLDYQAQSDEKSLIAKLHQHNVSLQLSEATALGKLESITSKLQKMEAYNLRLEQKLDEKEQALYYARLEGRNRAKHLRQTIQSLRRQFSGALPLAQQEKFSKTMIQLQNDKLKIMQEMKNSQQEHRNMENKTLEMELKLKGLEELISTLKDTKGAQKVINWHMKIEELRLQELKLNRELVKDKEEIKYLNNIISEYERTISSLEEEIVQQNKFHEERQMAWDQREVDLERQLDIFDRQQNEILNAAQKFEEATGSIPDPSLPLPNQLEIALRKIKENIRIILETRATCKSLEEKLKEKESALRLAEQNILSRDKVINELRLRLPATAEREKLIAELGRKEMEPKSHHTLKIAHQTIANMQARLNQKEEVLKKYQRLLEKAREEQREIVKKHEEDLHILHHRLELQADSSLNKFKQTAWDLMKQSPTPVPTNKHFIRLAEMEQTVAEQDDSLSSLLVKLKKVSQDLERQREITELKVKEFENIKLQLQENHEDEVKKVKAEVEDLKYLLDQSQKESQCLKSELQAQKEANSRAPTTTMRNLVERLKSQLALKEKQQKALSRALLELRAEMTAAAEERIISATSQKEAHLNVQQIVDRHTRELKTQVEDLNENLLKLKEALKTSKNRENSLTDNLNDLNNELQKKQKAYNKILREKEEIDQENDELKRQIKRLTSGLQGKPLTDNKQSLIEELQRKVKKLENQLEGKVEEVDLKPMKEKNAKEELIRWEEGKKWQAKIEGIRNKLKEKEGEVFTLTKQLNTLKDLFAKADKEKLTLQRKLKT
notes: The text says only 'lacking the C-terminus'; also called truncation lacking the C-terminus; not shown: N-terminal GFP tag from pcDNA-DEST53 (Gateway)
[2]
  percent of transfected cells with increased microtubule acetylation and bundling: ~40%
  percent of transfected hTERT-RPE1 cells with a fibrillar localization pattern: ~60%
[3]
  percent associated with microtubules: < 50%

B3: GFP-tagged "Deleted" CEP290 truncation (part of the microtubule binding region deleted in the rd16 mouse) (other)
chain: DQSQKESQCLKSELQAQKEANSRAPTTTMRNLVERLKSQLALKEKQQKALSRALLELRAEMTAAAEERIISATSQKEAHLNVQQIVDRHTRELKTQVEDLNENLLKLKEALKTSKNRENSLTDNLNDLNNELQKKQKAYNKILREKEEIDQENDELKRQIKRLTSGLQGKPLTDNKQSLIEELQRKVKKLENQLEGKVEEVDLKPMKEK
notes: not shown: N-terminal GFP tag from pcDNA-DEST53 (Gateway)
[4]
  binding result: no binding
